The values below come from the DeepSol protein solubility set.

This data set in a line: soluble on expression in E. coli; label from the status in PepcDB or PDB records.
For the sequence “MGSDKIHHHHHHMLCSRYFTSSLFLWGEALPTLLEEFLNEVEKMLKNQVNTRRIHQLLKELDDPLLENKDLEEKLQAFLDYVKEIPNLPEARKRYRIQKSLEMIEKLRSWFLIDYLECSGEEVDLSTDIQYAKGVGPNRKKKLKKLGIETLRDLLEFFPRDYEDRRKIFKLNDLLPGEKVTTQGKIVSVETKKFQNMNILTAVLSDGLVHVPLKWFNQDYLQTYLKQLTGKEVFVTGTVKSNAYTGQYEIHNAEVTPKEGEYVRRILPIYRLTSGISQKQMRKIFEENIPSLCCSLKETLPERILEKRKLLGVKDAYYGMHFPKTFYHLEKARERLAYEELFVLQLAFQKIRKEREKHGGIPKKIEGKLAEEFIKSLPFKLTNAQKRAHQEIRNDMISEKPMNRLLQGDVGSGKTVVAQLAILDNYEAGFQTAFMVPTSILAIQHYRRTVESFSKFNIHVALLIGATTPSEKEKIKSGLRNGQIDVVIGTHALIQEDVHFKNLGLVIIDEQHRFGVKQREALMNKGKMVDTLVMSATPIPRSMALAFYGDLDVTVIDEMPPGRKEVQTMLVPMDRVNEVYEFVRQEVMRGGQAFIVYPLIEESDKLNVKSAVEMYEYLSKEVFPEFKLGLMHGRLSQEEKDRVMLEFAEGRYDILVSTTVIEVGIDVPRANVMVIENPERFGLAQLHQLRGRVGRGGQEAYCFLVVGDVGEEAMERLRFFTLNTDGFKIAEYDLKTRGPGEFFGVKQHGLSGFKVADLYRDLKLLEWAREDVQEIDVEGIELPEEIKLIEVG”, the “soluble on expression in E. coli” value was “not soluble”. As for “MKKLAIVIPAYKVDFFETVLFSLAQQTCKDFTVYIGEDCSRDDFKSLIEQYSKQLDIVYRRFEVNFGGHDLVAQWNRCIQLTQNEPWLWLFSDDDIMGPRCVEYFFNTIAIDNGAFDIYHFDVKIVDCENQIVRIPTVYPSVIDSETFYRRKASARLDSFVVEYIFLRDIYNCTGGFQHFDLAWGSDIATWVKIGADKGIKTISGDYVYWRKSKKNITPNMDNKMVLRKLTADIEFTHWINEFFHKSSVYRFTKYAFFRLVVHYSQAISKSQIRLLLDKAVGKNIISFNDAFIINWTYRFIQLAKRVKDVLYFLEHHHHHH”, the entry is “soluble”; as for “MGSDKIHHHHHHMTQSPDLQAVLDYADAHMNDSLARLFDLVRIPSVSTVPAHAGDCRAAAQWLSDQLNDLGFDASVRPTGGHPMVVAHQTDADGPHVLFYGHYDVQPVVPLELWKTDPFEPTLEPQPNGDTHITGRGASDDKGQLLTFIEACRAWKAVTGRLPIKVSMLFEGEEESGSQSLGPFLEQTAEELRADVMMVCDTDMWDRDTPAITTMLRGLVGEEFTITTADRDLHSGMFGNAARNALQVASDAIAGLRGPDGGVTLPGFYDGVEDLAPEIKAQWKSLPFDQEGFLSDVGLSLPAGEDAYSIMEQIWARPSCEIHGVIGGYTDEGFKTVIPAKATAKVSFRLVAGQDPARIREAFRAHIRAYVPKDCSVEFTSHGASPALSLPLDSPYLTATREALSQEWGTEAALAGTGGSIPIVGEFKRQLGMDTLLVGFARFDNRIHSPNEKYDLSSFTGGIRSFVRVLAALSEIEAAAAP”, “not soluble”; as for “WQYMFYSALSIFVSGKVTDAVYTKQKKMQVMIVTKNPDRVVDEIQKKMRRGITIIHEAEGAYRHDRQTVLLTIVTRFELPSLEAAMKESDPNAFVSISDNVKILGRFYEEDYK”, “not soluble”. As to “MSLVRTALTIAGSDSGGGAGIEADLKTFTAFGVHGLVAITSVTAQNTQTVTAIHDIPPEVVSEQIRVVAEDIGVDAAKTGMLSNAEIIKAVAKTVKNYDFPLVVDPVMIAKSGAPLLREDAVDALIKYILPLATLVTPNRFEAEKLTGMEIRNVNDAKLAAKKIAEETGAKAVIVKGGHLEGKEAIDVLYHNGAYKLYRAPKVDGCTHGTGCSFSAAITANLAKGLSLEDAVSVAKEFITLGISTGHKIGHGHCPVNQSAWIEIPAEKWRIYEELTRAVREFERINPIKLIPEVGTNFVYALPFPYARTKEDVAGVKGRIVRVGNEVRAVGSVEFGASDHLARAILTFMRFYPKYRSAINVRYSEEIVELAKEQGFTVSFYDRREEPIEVKEKEGATIPWGIEVAVKRINKRPDVIYHLGDIGKEPMILIFGRNPREVLDKLRLLEGHHHHHH”, the “soluble on expression in E. coli” value is “soluble”. On to “MAHHHHHHMKEDESDEPVQKKEYEKTFWEQIGKPKHILAPMVDLSELAFRLLCRNYNCHLTFTPMLHAKNFVEHEKYRKSYFQSCEKDEPVIAQFCGNNSKIILNAIEYIKNEVNAVDLNLGCPQQIAKKGNYGAFLLQKHDEVVNLVSDITNNCNIPITCKIRKIDQDYQKTLNLCYDLQSRNVKMITVHGRTKEEKGTNIKQCDYEIIKIIKERLNIPIIANGSIEHFEDIQKCLNYTKADAVMCAEILLEKPYFFSNQNVHTVDVVNEYYDLFLQYESNTKYLKGHLFKMLYKYFQVHTDLRDMLNNCHSLDDYVNFRSILNEKRSSGVLTESSLSWYRRYRKTE”, for which the “soluble on expression in E. coli” value is reported as “not soluble”.
